B1: glmS ribozyme (parent)
chain: AUAAAAGCGCCAGAACUACAGAAAUGUAGUUGACGAGGAGGAGGUUUAUCGAAUUUUCGGCGGAUGCCUCCAAA

± gives the standard error. Fewer inactive variants are shown than the library holds.

What all share (details): with glucosamine-6-phosphate
Variants of B1 are the subject of series [1]. Briefly: self-cleavage kobs at 40 uM GlcN6P; higher = faster cleavage; RNA array. Put shortly: (§1)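 kobs was derived by fitting per-tile medians to one- or two-exponential decays after normalising signals to baseline and to non-cleaving reference variants. Those signals came from barcoded ribozyme variants transcribed in situ by E. coli RNA polymerase on sequenced MiSeq chips, followed through a hybridised Cy3 probe at 37 °C and imaged over ~14 h. Glucosamine-6-phosphate (40 μM to 10 mM) in HEPES/KCl/Mg(OAc)2 buffer was flowed in. Weighted Michaelis–Menten fits across concentrations then gave kcat and KM.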

Series [2] covers variants of B1. Briefly: self-cleavage kobs at 10000 uM GlcN6P; higher = faster cleavage; RNA array. The essentials:
as §1

Variants of B1 are the subject of series [3]. Briefly: self-cleavage kobs at 640 uM GlcN6P; higher = faster cleavage; RNA array. Put shortly: as §1
In series [4] the parent is B1. Briefly: self-cleavage kobs at 2500 uM GlcN6P; higher = faster cleavage; RNA array. The essentials: as §1
Series [5] covers variants of B1. Briefly: self-cleavage kobs at 160 uM GlcN6P; higher = faster cleavage; RNA array. The essentials: as §1

Regarding AUAAAAUCCCGCGAACUACAGAAAUGUAGUUGACGAGGAGGAGGUUUAUCGAAUAUUCGGCGGAUGCCUCCAAA [G7U G9C C11G A12C U55A], in the series with glucosamine-6-phosphate [1], the “self-cleavage kobs at 40 uM GlcN6P” value was < 1e-05 s⁻¹. The “self-cleavage kobs at 10000 uM GlcN6P” value with glucosamine-6-phosphate [2] is < 1e-05 s⁻¹.

Turning to AUAAAAGCGCCAGAACUACAGAAAUGUAGUUGACGAGGCGGAGGUUUCUCGAAUCUUUGGCGGAUGCCUCCAAA [A39C A48C U55C C58U], the “self-cleavage kobs at 40 uM GlcN6P” value with glucosamine-6-phosphate [1] was < 1e-05 s⁻¹. Also, the “self-cleavage kobs at 640 uM GlcN6P” value in the series with glucosamine-6-phosphate [3] is < 1e-05 s⁻¹. Also, in the series with glucosamine-6-phosphate [4], the “self-cleavage kobs at 2500 uM GlcN6P” value was < 1e-05 s⁻¹.

Consider AUAAAAGCGCCAGAUAUACAGAAAUGUAGUUGACGAGGAAGAGGUUUAUCGAAUUUUCGGCGGAUGCUACCAAA [A15U C16A G40A C68U U69A], for which, in the series with glucosamine-6-phosphate [1], the “self-cleavage kobs at 40 uM GlcN6P” value was < 1e-05 s⁻¹. Also, the “self-cleavage kobs at 10000 uM GlcN6P” value in the series with glucosamine-6-phosphate [2] was < 1e-05 s⁻¹.

Regarding AUAAAAGCGCCAGAACUACAGAAAUGUAGUUGACGAGGAGGUGGUCUAUCGAAUUUUCGGCGGAUGCCUCCAAA [A42U U46C], the “self-cleavage kobs at 40 uM GlcN6P” value with glucosamine-6-phosphate [1] was < 1e-05 s⁻¹. Besides, in the series with glucosamine-6-phosphate [5], the “self-cleavage kobs at 160 uM GlcN6P” value was < 1e-05 s⁻¹. The “self-cleavage kobs at 640 uM GlcN6P” value with glucosamine-6-phosphate [3] is < 1e-05 s⁻¹.

Turning to AUAAAAGCGCCAGAACUACAGAAAUGUAGUGGACGAGGUGGAGGUUUAUCGAAUUUUCGGUGGAUGCCUCCAAA [U31G A39U C61U], the “self-cleavage kobs at 40 uM GlcN6P” value with glucosamine-6-phosphate [1] is < 1e-05 s⁻¹.

Take AUAAAAUCGCCAGAACUACAGAAAUGUAGUUGACGAGGAGGGGGUUUAGCGAAUUUUCGGCGGAUGCCUGCAAA [G7U A42G U49G C70G]: the “self-cleavage kobs at 40 uM GlcN6P” value with glucosamine-6-phosphate [1] is < 1e-05 s⁻¹.

Consider AUAAAAGCACCAGAACUACAGAAAUGUAGUUGACGCGGAGGAGGUUUACCGAAUUUUCGGCGGAUGCCUCCAAA [G9A A36C U49C], for which the “self-cleavage kobs at 40 uM GlcN6P” value with glucosamine-6-phosphate [1] was < 1e-05 s⁻¹. The “self-cleavage kobs at 2500 uM GlcN6P” value in the series with glucosamine-6-phosphate [4] was < 1e-05 s⁻¹. For the same variant, in the series with glucosamine-6-phosphate [2], the “self-cleavage kobs at 10000 uM GlcN6P” value was < 1e-05 s⁻¹.

Turning to AUAAAAGCGCCAGAAUUACAGAAAUGUAGGUAACGAGGAGGAGGUUUAUCGAAUUUACGGUGGAUGCCUCCAAA [C16U U30G G32A U57A C61U], in the series with glucosamine-6-phosphate [1], the “self-cleavage kobs at 40 uM GlcN6P” value was < 1e-05 s⁻¹. For the same variant, the “self-cleavage kobs at 2500 uM GlcN6P” value with glucosamine-6-phosphate [4] was < 1e-05 s⁻¹.

In the case of AUAAAAUCGCCAGAACUACAGAAAUGUAGUUGACCAGGAGGAGGUUUAUCGAAUUUUCGGCGGAUGCCUCCAAA [G7U G35C], the “self-cleavage kobs at 40 uM GlcN6P” value in the series with glucosamine-6-phosphate [1] was < 1e-05 s⁻¹. Further, in the series with glucosamine-6-phosphate [5], the “self-cleavage kobs at 160 uM GlcN6P” value was < 1e-05 s⁻¹. The “self-cleavage kobs at 640 uM GlcN6P” value in the series with glucosamine-6-phosphate [3] is < 1e-05 s⁻¹. For the same variant, the “self-cleavage kobs at 2500 uM GlcN6P” value with glucosamine-6-phosphate [4] was < 1e-05 s⁻¹. Further, the “self-cleavage kobs at 10000 uM GlcN6P” value with glucosamine-6-phosphate [2] was < 1e-05 s⁻¹.

Consider AUAAAAGCGUUAGAACUACAGAAAUGUAGUUGACGAGGAGGAGGUUUAUCGAAUUGUCGGCUGAUGCCUCCAAA [C10U C11U U56G G62U], for which the “self-cleavage kobs at 40 uM GlcN6P” value in the series with glucosamine-6-phosphate [1] was < 1e-05 s⁻¹. The “self-cleavage kobs at 10000 uM GlcN6P” value in the series with glucosamine-6-phosphate [2] is < 1e-05 s⁻¹.

Consider AUAAAAGCGCCAGAUCUACAGAAAUGUAGUUGACGAGGAGGGGGUUUAUCGAAUUUUCGGCUGAUGCCUCCAAA [A15U A42G G62U], for which the “self-cleavage kobs at 40 uM GlcN6P” value in the series with glucosamine-6-phosphate [1] was < 1e-05 s⁻¹. The “self-cleavage kobs at 2500 uM GlcN6P” value in the series with glucosamine-6-phosphate [4] is < 1e-05 s⁻¹. The “self-cleavage kobs at 10000 uM GlcN6P” value with glucosamine-6-phosphate [2] is < 1e-05 s⁻¹.

Take AUAAAAGCGCCAGAACUACAGAAAUGUAUUUGACGAGGAGGAGGUUUAUCGAAUUUUCGGCGUAUGCCUCCAAA [G29U G63U]: the “self-cleavage kobs at 40 uM GlcN6P” value with glucosamine-6-phosphate [1] was < 1e-05 s⁻¹. Further, in the series with glucosamine-6-phosphate [5], the “self-cleavage kobs at 160 uM GlcN6P” value was < 1e-05 s⁻¹. Besides, the “self-cleavage kobs at 640 uM GlcN6P” value with glucosamine-6-phosphate [3] is < 1e-05 s⁻¹. The “self-cleavage kobs at 10000 uM GlcN6P” value with glucosamine-6-phosphate [2] was < 1e-05 s⁻¹.

For AUAAAAGCGCCAGAACUACAGAAAUGUAGAUGACGAGGAGGAGGUUUAUCGAAUUUUCGGCGGAUCCCUGCAAA [U30A G66C C70G], the “self-cleavage kobs at 40 uM GlcN6P” value with glucosamine-6-phosphate [1] was < 1e-05 s⁻¹.

For the variant AUAAAAGCGCCAGAACUACAGAAAUGUAGUUGACGAGGCGGAGAUUUAUCGAAUUUUCGUCGGAUGCUUCCAAA [A39C G44A G60U C68U], the “self-cleavage kobs at 40 uM GlcN6P” value with glucosamine-6-phosphate [1] was < 1e-05 s⁻¹.

As for AUAAAAGUGUCAGAACUACAGAAAUGUAGUUGACGAGGAGGAGGUUUAUCGAAUUUUCGGCGGAUGCCUGCAAA [C8U C10U C70G], the “self-cleavage kobs at 40 uM GlcN6P” value in the series with glucosamine-6-phosphate [1] amounted to 5.14e-05 ± 2.4e-05 s⁻¹. In addition, the “self-cleavage kobs at 160 uM GlcN6P” value in the series with glucosamine-6-phosphate [5] worked out at 8.73e-05 ± 2.6e-05 s⁻¹. Moreover, the “self-cleavage kobs at 640 uM GlcN6P” value in the series with glucosamine-6-phosphate [3] is 0.000103 ± 2.5e-05 s⁻¹. Moreover, the “self-cleavage kobs at 2500 uM GlcN6P” value with glucosamine-6-phosphate [4] stood at 0.000587 ± 0.00021 s⁻¹. Moreover, the “self-cleavage kobs at 10000 uM GlcN6P” value in the series with glucosamine-6-phosphate [2] is 5.37e-05 ± 1.7e-05 s⁻¹.
